# From US20210030857A1 (NGM BIOPHARMACEUTICALS, published 2021)
# T1: human beta klotho mutant Y701A on HEK-293T cells (human, UniProt Q86Z14 1-1044)
# T1 sequence: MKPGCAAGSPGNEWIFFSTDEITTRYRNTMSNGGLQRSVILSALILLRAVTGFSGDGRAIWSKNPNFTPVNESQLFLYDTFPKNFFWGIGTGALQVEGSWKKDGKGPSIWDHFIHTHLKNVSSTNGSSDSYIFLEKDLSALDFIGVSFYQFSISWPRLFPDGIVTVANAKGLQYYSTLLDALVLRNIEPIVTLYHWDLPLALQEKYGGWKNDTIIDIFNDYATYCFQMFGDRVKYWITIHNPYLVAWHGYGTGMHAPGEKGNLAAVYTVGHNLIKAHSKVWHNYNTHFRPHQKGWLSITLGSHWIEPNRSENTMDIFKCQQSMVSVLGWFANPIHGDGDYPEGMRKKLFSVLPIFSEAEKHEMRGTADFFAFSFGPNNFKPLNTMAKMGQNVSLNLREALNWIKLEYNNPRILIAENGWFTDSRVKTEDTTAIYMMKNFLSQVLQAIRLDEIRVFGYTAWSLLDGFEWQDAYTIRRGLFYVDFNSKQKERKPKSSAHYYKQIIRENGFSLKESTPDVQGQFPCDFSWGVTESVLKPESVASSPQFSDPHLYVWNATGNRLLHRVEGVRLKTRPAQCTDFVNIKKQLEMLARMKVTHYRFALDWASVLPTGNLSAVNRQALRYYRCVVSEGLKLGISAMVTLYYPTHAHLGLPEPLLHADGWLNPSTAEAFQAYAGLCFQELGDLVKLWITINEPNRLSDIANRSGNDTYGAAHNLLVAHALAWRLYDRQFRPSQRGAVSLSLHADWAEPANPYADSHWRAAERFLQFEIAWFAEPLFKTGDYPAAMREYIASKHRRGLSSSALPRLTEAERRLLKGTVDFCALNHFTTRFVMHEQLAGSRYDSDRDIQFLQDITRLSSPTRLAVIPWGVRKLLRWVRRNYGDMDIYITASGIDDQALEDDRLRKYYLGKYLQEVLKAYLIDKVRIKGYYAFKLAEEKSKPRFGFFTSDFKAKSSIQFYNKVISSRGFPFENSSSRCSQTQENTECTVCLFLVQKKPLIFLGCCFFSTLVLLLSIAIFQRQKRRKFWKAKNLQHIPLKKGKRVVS
# T2: human beta klotho mutant R703A on HEK-293T cells (human, UniProt Q86Z14 1-1044)
# T2 sequence: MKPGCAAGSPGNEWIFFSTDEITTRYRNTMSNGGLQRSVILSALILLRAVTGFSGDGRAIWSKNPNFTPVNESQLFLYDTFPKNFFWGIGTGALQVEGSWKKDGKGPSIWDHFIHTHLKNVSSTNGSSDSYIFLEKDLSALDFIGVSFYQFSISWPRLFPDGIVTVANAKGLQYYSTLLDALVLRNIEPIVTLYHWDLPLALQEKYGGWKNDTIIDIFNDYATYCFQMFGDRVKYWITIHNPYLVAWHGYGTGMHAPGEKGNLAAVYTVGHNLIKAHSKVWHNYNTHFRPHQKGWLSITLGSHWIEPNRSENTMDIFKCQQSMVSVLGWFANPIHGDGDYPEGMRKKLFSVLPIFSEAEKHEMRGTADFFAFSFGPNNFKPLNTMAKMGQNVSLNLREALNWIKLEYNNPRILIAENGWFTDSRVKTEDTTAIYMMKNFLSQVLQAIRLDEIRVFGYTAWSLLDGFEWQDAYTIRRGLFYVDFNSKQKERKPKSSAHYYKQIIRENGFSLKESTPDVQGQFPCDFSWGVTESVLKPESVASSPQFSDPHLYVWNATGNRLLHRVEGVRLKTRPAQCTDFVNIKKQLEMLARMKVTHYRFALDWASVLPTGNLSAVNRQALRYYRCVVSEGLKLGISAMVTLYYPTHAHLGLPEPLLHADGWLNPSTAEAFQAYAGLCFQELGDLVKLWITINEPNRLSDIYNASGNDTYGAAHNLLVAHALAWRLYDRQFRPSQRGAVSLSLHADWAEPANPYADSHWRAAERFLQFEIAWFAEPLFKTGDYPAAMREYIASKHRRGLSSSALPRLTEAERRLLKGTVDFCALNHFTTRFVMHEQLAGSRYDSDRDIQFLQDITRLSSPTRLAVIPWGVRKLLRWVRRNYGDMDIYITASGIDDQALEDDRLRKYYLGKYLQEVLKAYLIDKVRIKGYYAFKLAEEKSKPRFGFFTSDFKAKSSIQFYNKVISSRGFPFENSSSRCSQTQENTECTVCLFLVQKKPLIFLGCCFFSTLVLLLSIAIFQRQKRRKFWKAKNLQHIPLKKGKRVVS
# How the values were obtained:
# [1] = target: T1, human beta klotho mutant Y701A on …; assay: shotgun alanine mutagenesis, FACS on HEK-293T cells, antibody 0.5 µg/ml
# Method: (§1) In order to further identify specific binding residues within human beta klotho KL2 domain, shotgun mutagenesis was used to separately mutate individual residues of the KL2 domain of human beta klotho to an alanine (e.g., residues F508A-L1008A). […] For example, screening of the beta klotho mutant proteins was conducted at a concentration of 0.5 μg/ml for the humanized 5H23 antibody, 1.0 μg/ml for the Fab fragment, and 2.0 μg/ml for a positive control polyclonal anti-beta klotho antibodies.
# (§2) The resulting mapping identified three specific binding residues, H657, Y701 and R703, which were negative for binding by the humanized 5H23 antibody, but were positive for the control polyclonal anti-beta klotho antibodies. These residues represented amino acids whose side changes made the highest energetic contributions to the antibody-epitope interation as shown in Table 31. The locations of the three identified residues were modeled by showing them (dark spheres) at the equivalent positions on human cytosolic beta-glucosidase (PDB ID #2JFE; Tribolo et al., J. Mol. Biol. 370, 964-975 (2007)), identified by BLAST alignment of the two proteins as shown in FIG. 6.
# [2] = target: T2, human beta klotho mutant R703A on …; assay: as above
# Method: as §1, §2
binder,measurement,setting,value
"humanized 5H23 antibody (VH SEQ ID NO: 271 and VL SEQ ID NO: 276) (antibody, V domains shown, also called h5H23; h5H23 (Prep 1)) VH: QVQLQQSGAEVKKPGASVKVSCKASGYTFTSYDINWVRQAPGQGLEWIGWIYPGDGSTKYNEKFKGKATITRDTSASTAYMELSSLRSEDTAVYFCARSDYYGSRSFAYWGQGTLVTVSS VL: DIVMTQSPDSLAVSLGERATINCRASKSVSTSGYVYMHWYQQKPGQPPKLLIYLASYLESGVPDRFSGSGSGTDFTLTISSVQAEDVAVYYCQHSRDLTFPFGGGTKLEIK",Binding Reactivity (% WT),[1],0.64 % WT
same,Binding Reactivity (% WT),[2],1.64 % WT
